Columns and labels:
IL-9R [1] = target: T1, IL-9R (Mus musculus, UniProt Q01114); test: Competitive binding of radiolabelled rIL-9 to TS1 cells (specificity of IL-9 binding); set-up: a number of different cell types were tested for the presence of the IL-9R molecule; endogenous in cells; conditions: competitor 6.1 × 10^-10 M; labelled rIL-9 6.1×10^-10 M, 10^6 TS1 cells, 3 h 4° C.; no competitor 4083 ± 16
T1 sequence (Q01114 38-468): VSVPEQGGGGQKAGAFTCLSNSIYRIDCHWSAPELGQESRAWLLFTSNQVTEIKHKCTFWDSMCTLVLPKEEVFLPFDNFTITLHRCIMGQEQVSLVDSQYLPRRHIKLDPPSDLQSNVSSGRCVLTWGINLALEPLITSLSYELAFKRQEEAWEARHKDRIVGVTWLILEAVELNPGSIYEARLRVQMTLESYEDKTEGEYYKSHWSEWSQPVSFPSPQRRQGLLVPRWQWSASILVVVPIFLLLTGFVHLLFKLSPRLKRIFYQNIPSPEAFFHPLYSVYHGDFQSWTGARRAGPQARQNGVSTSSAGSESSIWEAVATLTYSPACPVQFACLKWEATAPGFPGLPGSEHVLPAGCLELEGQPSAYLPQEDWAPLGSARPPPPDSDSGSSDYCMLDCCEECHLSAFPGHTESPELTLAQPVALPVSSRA
Protocol: In order to test whether the radioactive IL-9 would bind to TS1 cells which are mouse cells, which are IL-9 dependent, a competitive assay was carried out. Specifically, rIL-9 was incubated with TS1 cells in 140 ul of DMEM containing BSA (10 mg/ml) and Na3 N (10 mM). In order to determine the level of binding, a 100 fold excess of "cold", i.e., non-radiolabelledIL-9, was also mixed with the material. The rIL-9 was admixed at 6.1×10^-10 M, for three hours at 4° C., with 10^6 TS1 cells. Bound material was separated from free ligand via centrifugation over a layer of dibutyl and dioctyl phthalate (15:I). In addition, the experiments were repeated using various interleukins, interferon-γ ("INF-γ"), tumor necrosis factor ("TNF"), and granulocyte, macrophage colony stimulating factor ("GM-CSF"). All experiments were carried out in triplicate.

IL-9R [2] = target: T1, IL-9R; test: Cellular distribution of IL-9R: specific binding of 125I-labeled IL-9 to cell types; set-up: a number of different cell types were tested for the presence of the IL-9R molecule; endogenous in cells
Protocol: The molecular nature of the IL-9R was studied via affinity cross linking experiments. In these, 5×10^6 cells (TS1)/ml were incubated for three hours at 4° C. in 140 ul of binding medium, either with 1.3×10^-10 M of labeled rIL-9, or the labeled cytokine mixed with 3.1×10^-8 M of the unlabeled material. After two washes with 1 ml of cold, phosphate buffered saline (PBS) at pH 7.4, cells were resuspended in 2.25 ml of cold PBS (pH 8.4), containing 1 mM MgCl2. Disuccinimidyl suberate, solubilized in dimethylsulfoxide, was added at a final concentration of 10 ug/ml. This cross links the cytokine to the cell. […] After a 30 minute incubation on ice, the reaction was quenched by adding 2.5 ml of cold 10 mM TRIS-HCl (pH 7.4) and 1 mM EDTA. The cells were centrifuged and the resulting pellet was resuspended in 50 ul of cold lysis buffer (Tris-HCl 126 mM, pH 7.5 containing 0.7% Triton-X100, 2 mM phenylmethylsulfonyl fluoride (PMSF)), 10 mM EDTA, 10 mM 2-mercaptoethanol, and, in some cases 0.2 mM pepstatin, 2 mM O-phenanthrolin and 0.1 mM leupeptin were included. […] Following extraction, the detergent mixture was incubated for 30 minutes on ice, with insoluble material being removed by centrifuging for 15 minutes at 10,000 rpm. Supernatant was boiled for 90 seconds in the presence of 3 mg/ml of SDS, and was diluted twice with lysis buffer.
Following the protocols of Example 5, a number of different cell types were tested for the presence of the IL-9R molecule.
±Cells were incubated with ^125 Ilabeled IL9.

Bound Radioactivity (IL-9R [1]): 1181 ± 123 cpm
Specific Binding (IL-9R [2]; Factor-dependent T cells ST2K9.4A2, 125I-labeled IL-9 4.1 × 10^-10 M): 1415 mol/cell
Specific Binding (IL-9R [2]; Factor-dependent T cells TS1, 125I-labeled IL-9 5.6 × 10^-10 M): 2235 mol/cell
Specific Binding (IL-9R [2]; Factor-dependent T cells TUC.51S1, 125I-labeled IL-9 1.3 × 10^-10 M): 663 mol/cell
Specific Binding (IL-9R [2]; Lymphoma LBRM-33-1A5, 125I-labeled IL-9 5.6 × 10^-10 M): 599 mol/cell
Specific Binding (IL-9R [2]; Macrophages Bone marrow derived, 125I-labeled IL-9 4.1 × 10^-10 M): 195 mol/cell
Specific Binding (IL-9R [2]; Macrophages P399D1, 125I-labeled IL-9 6.2 × 10^-11 M): 16 mol/cell
Specific Binding (IL-9R [2]; Macrophages PU5-1,8, 125I-labeled IL-9 1.3 × 10^-10 M): 229 mol/cell
Specific Binding (IL-9R [2]; Mast cell line L138.C, 125I-labeled IL-9 4.1 × 10^-10 M): 331 mol/cell
Specific Binding (IL-9R [2]; Mast cell line L138.8A, 125I-labeled IL-9 4.1 × 10^-10 M): 2208 mol/cell
Specific Binding (IL-9R [2]; Myeloid Cell Line DA-1, 125I-labeled IL-9 3.2 × 10^-10 M): 18 mol/cell
Specific Binding (IL-9R [2]; T-cell leukemia TH1, 125I-labeled IL-9 5.6 × 10^-10 M): 273 mol/cell
Specific Binding (IL-9R [2]; Thymoma BW5147, 125I-labeled IL-9 6.2 × 10^-10 M): 120 mol/cell
Specific Binding (IL-9R [2]; Thymoma EL4.16, 125I-labeled IL-9 7.5 × 10^-10 M): 263 mol/cell
Substance: IL-9: lymphokine interleukin-9, T-cell derived growth factor; in Tables II and III the 125I-labelled recombinant form is used
Specific Binding (IL-9R [2]; B lymphocytes LPS-blasts, 125I-labeled IL-9 3.2 × 10^-10 M): -- (below detection limit (<10 mol/cell))
Specific Binding (IL-9R [2]; B lymphocytes unstimulated, 125I-labeled IL-9 3.2 × 10^-10 M): -- (below detection limit (<10 mol/cell))
Specific Binding (IL-9R [2]; B-cell hybridoma 7TD1, 125I-labeled IL-9 3.2 × 10^-10 M): -- (below detection limit (<10 mol/cell))
Specific Binding (IL-9R [2]; CTL clone CTL P1:5, 125I-labeled IL-9 1.6 × 10^-10 M): -- (below detection limit (<10 mol/cell))
Specific Binding (IL-9R [2]; CTL clone CTL P1:204, 125I-labeled IL-9 6.2 × 10^-11 M): -- (below detection limit (<10 mol/cell))
Specific Binding (IL-9R [2]; CTL clone CTL P35:10, 125I-labeled IL-9 3.3 × 10^-10 M): -- (below detection limit (<10 mol/cell))
Specific Binding (IL-9R [2]; CTL clone CTL P35:48, 125I-labeled IL-9 1.3 × 10^-10 M): -- (below detection limit (<10 mol/cell))
Specific Binding (IL-9R [2]; CTL clone CTL P91:6, 125I-labeled IL-9 1.3 × 10^-10 M): -- (below detection limit (<10 mol/cell))
Specific Binding (IL-9R [2]; Carcinoa 3LL (Lewis Lung), 125I-labeled IL-9 6.2 × 10^-11 M): -- (below detection limit (<10 mol/cell))
Specific Binding (IL-9R [2]; Fibroblasts A-9, 125I-labeled IL-9 6.2 × 10^-11 M): -- (below detection limit (<10 mol/cell))
Specific Binding (IL-9R [2]; Fibrosarcoma MethA, 125I-labeled IL-9 6.2 × 10^-11 M): -- (below detection limit (<10 mol/cell))
Specific Binding (IL-9R [2]; KLH-primed lymph nodes (C57B/6 mice), 125I-labeled IL-9 6.2 × 10^-10 M): -- (below detection limit (<10 mol/cell))
Specific Binding (IL-9R [2]; Myeloid Cell Line Ea3,15, 125I-labeled IL-9 5.6 × 10^-10 M): -- (below detection limit (<10 mol/cell))
Specific Binding (IL-9R [2]; Myeloid Cell Line FDC-P1, 125I-labeled IL-9 5.6 × 10^-10 M): -- (below detection limit (<10 mol/cell))
Specific Binding (IL-9R [2]; Myelomonocytic leukemia WEHI.3B, 125I-labeled IL-9 7.5 × 10^-10 M): -- (below detection limit (<10 mol/cell))
Specific Binding (IL-9R [2]; Normal lymph nodes, 125I-labeled IL-9 6.2 × 10^-10 M): -- (below detection limit (<10 mol/cell))
Specific Binding (IL-9R [2]; Plasmacytoma TEPC1033C, 125I-labeled IL-9 3.2 × 10^-10 M): -- (below detection limit (<10 mol/cell))
Specific Binding (IL-9R [2]; Spleen Cells, 125I-labeled IL-9 3.2 × 10^-10 M): -- (below detection limit (<10 mol/cell))
Specific Binding (IL-9R [2]; T lymphocytes ConA-blasts, 125I-labeled IL-9 3.2 × 10^-10 M): -- (below detection limit (<10 mol/cell))
Specific Binding (IL-9R [2]; T lymphocytes unstimulated, 125I-labeled IL-9 3.2 × 10^-10 M): -- (below detection limit (<10 mol/cell))
Specific Binding (IL-9R [2]; T-cell leukemia L1210, 125I-labeled IL-9 5.6 × 10^-10 M): -- (below detection limit (<10 mol/cell))
Specific Binding (IL-9R [2]; T-cell leukemia LEB, 125I-labeled IL-9 6.2 × 10^-11 M): -- (below detection limit (<10 mol/cell))
Specific Binding (IL-9R [2]; Thymocytes, 125I-labeled IL-9 3.2 × 10^-10 M): -- (below detection limit (<10 mol/cell))

Reference: patent US5180678A, “Uses of substantially pure interleukin-9 receptor” (Ludwig Institute for Cancer Research, priority 1992, dated 1993)
